Assay results as given in US20230346919A1.

Target: SARS-CoV-2 spike SΔ21 displayed on VSV-eGFP-SARS-CoV-2-SΔ21 particles (SARS-CoV-2 isolate Wuhan-Hu-1) (UniProt P0DTC2)
Test: cell-based or functional assay

## human ACE2-Fc (hACE2 residues 1-615, HRV-3C site, human IgG1 Fc) (from UniProt Q9BYF1 18-615) (Fc fusion)
  EC50, inhibition of VSV-SARS-CoV-2-SΔ21 infection (GRNT, Vero E6 cells): 29 µg/mL
